Assay results from the supplement of paper PMC5998384.

Tests used:
[1] = system: HeLa Kyoto; assay: solubility in G1/S (NP-40 vs SDS abundance) (log2 ratio); higher = more soluble; conditions: cell cycle stage: G1/S
[2] = system: HeLa Kyoto; assay: solubility change mitosis vs G1/S (difference of NP-40 vs SDS log2 ratios) (log2 ratio difference); higher = more soluble in mitosis
[3] = system: HeLa Kyoto; assay: thermal stability score vs G1/S (z-score of summed log2 fold changes over temperatures); higher = more thermally stable than in G1/S
[4] = system: HeLa Kyoto; assay: melting temperature (median over replicates), in situ; higher = more thermally stable
[5] = cell cycle stage: early G1 (4.5 h after nocodazole release)
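For melting temperature (median over replicates), in situ in this document: HeLa Kyoto cells synchronized by double thymidine or nocodazole block, proteins quantified by TMT10plex mass spectrometry, three independent biological replicates.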
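For solubility change mitosis vs G1/S (difference of NP-40 vs SDS log2 ratios) in this document: synchronized HeLa Kyoto cells (double thymidine block for G1/S, nocodazole release for mitosis), protein amounts in NP-40 versus SDS lysates quantified by mass spectrometry, three biological replicates.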
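For solubility in G1/S (NP-40 vs SDS abundance) in this document: HeLa Kyoto cells arrested at G1/S by double thymidine block, proteins quantified by TMT10plex mass spectrometry in mild NP-40 versus SDS extracts, three biological replicates.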
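For thermal stability score vs G1/S (z-score of summed log2 fold changes over temperatures) in this document: synchronized HeLa Kyoto cells, proteins quantified by TMT10plex mass spectrometry, three biological replicates, mitosis taken 0.5 h after nocodazole release, G1/S directly after double thymidine block.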

MAAPALRLCHIAFHVPAGQPLARNLQRLFGFQPLASREVDGWRQLALRSGDAVFLVNEGAGSGEPLYGLDPRHAVPSATNLCFDVADAGAATRELAALGCSVPVPPVRVRDAQGAATYAVVSSPAGILSLTLLERAGYRGPFLPGFRPVSSAPGPGWVSRVDHLTLACTPGSSPTLLRWFHDCLGFCHLPLSPGEDPELGLEMTAGFGLGGLRLTALQAQPGSIVPTLVLAESLPGATTRQDQVEQFLARHKGPGLQHVGLYTPNIVEATEGVATAGGQFLAPPGAYYQQPGKERQIRAAGHEPHLLARQGILLDGDKGKFLLQVFTKSLFTEDTFFLELIQRQGATGFGQGNIRALWQSVQEQSARSQEA [HPDL]
solubility in G1/S (log2) [1]: 0.23
solubility change mitosis (log2) [2]: -0.0348
thermal stability score [3, 5]: 1.41
thermal stability score ([3]; cell cycle stage: mitosis): 0.476
melting temperature ([4]; cell cycle stage: G1/S): 53.9 °C
melting temperature ([4]; cell cycle stage: mitosis): 52.8 °C

MSRRSQRLTRYSQGDDDGSSSSGGSSVAGSQSTLFKDSPLRTLKRKSSNMKRLSPAPQLGPSSDAHTSYYSESLVHESWFPPRSSLEELHGDANWGEDLRVRRRRGTGGSESSRASGLVGRKATEDFLGSSSGYSSEDDYVGYSDVDQQSSSSRLRSAVSRAGSLLWMVATSPGRLFRLLYWWAGTTWYRLTTAASLLDVFVLTRRFSSLKTFLWFLLPLLLLTCLTYGAWYFYPYGLQTFHPALVSWWAAKDSRRPDEGWEARDSSPHFQAEQRVMSRVHSLERRLEALAAEFSSNWQKEAMRLERLELRQGAPGQGGGGGLSHEDTLALLEGLVSRREAALKEDFRRETAARIQEELSALRAEHQQDSEDLFKKIVRASQESEARIQQLKSEWQSMTQESFQESSVKELRRLEDQLAGLQQELAALALKQSSVAEEVGLLPQQIQAVRDDVESQFPAWISQFLARGGGGRVGLLQREEMQAQLRELESKILTHVAEMQGKSAREAAASLSLTLQKEGVIGVTEEQVHHIVKQALQRYSEDRIGLADYALESGGASVISTRCSETYETKTALLSLFGIPLWYHSQSPRVILQPDVHPGNCWAFQGPQGFAVVRLSARIRPTAVTLEHVPKALSPNSTISSAPKDFAIFGFDEDLQQEGTLLGKFTYDQDGEPIQTFHFQAPTMATYQVVELRILTNWGHPEYTCIYRFRVHGEPAH [SUN2]
solubility in G1/S (log2) [1]: -0.141
solubility change mitosis (log2) [2]: 0.229
thermal stability score [3, 5]: -1.84
thermal stability score ([3]; cell cycle stage: mitosis): -1.17
melting temperature ([4]; cell cycle stage: G1/S): 52.4 °C
melting temperature ([4]; cell cycle stage: mitosis): 55.1 °C

MDSRVSELFGGCCRPGGGPAVGGTLKARGAGSSSGCGGPKGKKKNGRNRGGKANNPPYLPPEAEDGNIEYKLKLVNPSQYRFEHLVTQMKWRLQEGRGEAVYQIGVEDNGLLVGLAEEEMRASLKTLHRMAEKVGADITVLREREVDYDSDMPRKITEVLVRKVPDNQQFLDLRVAVLGNVDSGKSTLLGVLTQGELDNGRGRARLNLFRHLHEIQSGRTSSISFEILGFNSKGEVVNYSDSRTAEEICESSSKMITFIDLAGHHKYLHTTIFGLTSYCPDCALLLVSANTGIAGTTREHLGLALALKVPFFIVVSKIDLCAKTTVERTVRQLERVLKQPGCHKVPMLVTSEDDAVTAAQQFAQSPNVTPIFTLSSVSGESLDLLKVFLNILPPLTNSKEQEELMQQLTEFQVDEIYTVPEVGTVVGGTLSSGICREGDQLVVGPTDDGCFLELRVCSIQRNRSACRVLRAGQAATLALGDFDRALLRKGMVMVSPEMNPTICSVFEAEIVLLFHATTFRRGFQVTVHVGNVRQTAVVEKIHAKDKLRTGEKAVVRFRFLKHPEYLKVGAKLLFREGVTKGIGHVTDVQAITAGEAQANMGF [GTPBP2]
solubility in G1/S (log2) [1]: -0.711
solubility change mitosis (log2) [2]: 0.127
thermal stability score [3, 5]: 0.507
thermal stability score ([3]; cell cycle stage: mitosis): 0.439
melting temperature ([4]; cell cycle stage: G1/S): 49.9 °C
melting temperature ([4]; cell cycle stage: mitosis): 50.1 °C

MQNYKYDKAIVPESKNGGSPALNNNPRRSGSKRVLLICLDLFCLFMAGLPFLIIETSTIKPYHRGFYCNDESIKYPLKTGETINDAVLCAVGIVIAILAIITGEFYRIYYLKKSRSTIQNPYVAALYKQVGCFLFGCAISQSFTDIAKVSIGRLRPHFLSVCNPDFSQINCSEGYIQNYRCRGDDSKVQEARKSFFSGHASFSMYTMLYLVLYLQARFTWRGARLLRPLLQFTLIMMAFYTGLSRVSDHKHHPSDVLAGFAQGALVACCIVFFVSDLFKTKTTLSLPAPAIRKEILSPVDIIDRNNHHNMM [PLPP3]
solubility in G1/S (log2) [1]: -0.0783
solubility change mitosis (log2) [2]: -0.139
thermal stability score [3, 5]: -1.69
thermal stability score ([3]; cell cycle stage: mitosis): 5.11
melting temperature ([4]; cell cycle stage: G1/S): 57 °C
melting temperature ([4]; cell cycle stage: mitosis): 55.7 °C

MVSWMICRLVVLVFGMLCPAYASYKAVKTKNIREYVRWMMYWIVFALFMAAEIVTDIFISWFPFYYEIKMAFVLWLLSPYTKGASLLYRKFVHPSLSRHEKEIDAYIVQAKERSYETVLSFGKRGLNIAASAAVQAATKSQGALAGRLRSFSMQDLRSISDAPAPAYHDPLYLEDQVSHRRPPIGYRAGGLQDSDTEDECWSDTEAVPRAPARPREKPLIRSQSLRVVKRKPPVREGTSRSLKVRTRKKTVPSDVDS [REEP4]
solubility in G1/S (log2) [1]: 0.0372
solubility change mitosis (log2) [2]: -0.135
thermal stability score [3, 5]: -1.06
thermal stability score ([3]; cell cycle stage: mitosis): -1.58
melting temperature ([4]; cell cycle stage: G1/S): 53.4 °C
melting temperature ([4]; cell cycle stage: mitosis): 53.2 °C
